Tests used:
[1] = target: β-site APP-cleaving enzyme 1 (BACE1) (UniProt P56817)
[2] = target: BACE1 extracellular domain (human, UniProt P56817 46-457); assay: indirect ELISA (plate-coated BACE1); ELISA: BACE1 coated in 1x PBS, 5% BSA block, PBST (0.01% Tween 20, pH 7.4) wash, aptamer 60 min at 37 C; SELEX binding buffer: 1x PBS, 5 mM MgCl2, 0.45% glucose, tRNA, salmon sperm DNA, BSA; FRET: kit Fluorescent Assay Buffer, 37 C, 4 h; settings: protein: commercial; predicted stem-loop
Chain of BACE1 extracellular domain (P56817 46-457): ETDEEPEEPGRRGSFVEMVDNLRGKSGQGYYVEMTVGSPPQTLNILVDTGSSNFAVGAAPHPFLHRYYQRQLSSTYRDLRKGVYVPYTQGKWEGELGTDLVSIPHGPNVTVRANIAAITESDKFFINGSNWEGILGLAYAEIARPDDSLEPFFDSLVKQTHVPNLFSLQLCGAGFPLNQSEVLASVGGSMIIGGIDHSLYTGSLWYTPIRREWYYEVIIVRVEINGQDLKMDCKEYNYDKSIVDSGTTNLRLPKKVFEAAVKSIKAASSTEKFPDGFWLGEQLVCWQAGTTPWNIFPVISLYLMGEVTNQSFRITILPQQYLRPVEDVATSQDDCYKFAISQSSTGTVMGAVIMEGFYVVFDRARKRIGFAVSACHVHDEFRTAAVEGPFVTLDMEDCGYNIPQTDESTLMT

Chain of β-site APP-cleaving enzyme 1 (BACE1) (P56817 46-501): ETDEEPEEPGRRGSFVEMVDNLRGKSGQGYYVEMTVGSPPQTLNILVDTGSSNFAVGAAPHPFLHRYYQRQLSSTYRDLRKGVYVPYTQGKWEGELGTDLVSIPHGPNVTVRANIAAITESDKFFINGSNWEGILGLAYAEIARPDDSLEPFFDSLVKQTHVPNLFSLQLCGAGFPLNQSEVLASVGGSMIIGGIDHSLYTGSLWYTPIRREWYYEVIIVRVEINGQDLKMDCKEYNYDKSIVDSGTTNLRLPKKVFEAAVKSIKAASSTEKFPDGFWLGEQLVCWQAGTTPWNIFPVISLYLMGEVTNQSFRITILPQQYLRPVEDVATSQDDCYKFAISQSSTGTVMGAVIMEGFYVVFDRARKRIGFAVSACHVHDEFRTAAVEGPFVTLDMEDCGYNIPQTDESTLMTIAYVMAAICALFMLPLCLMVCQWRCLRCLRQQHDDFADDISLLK

| IC50 of inhibition of BACE1 activity (cleavage of a fluorescent substrate, FRET assay of the BACE1 Activity Detection Kit, 4 h, 37°C) [1] [nM] | Molecule | Kd [2] [nM] |
| --- | --- | --- |
| 242 | [Asn670, Sta671, Val672]-Amyloid β/A4 Precursor Protein 770 Fragment 662–675 (from UniProt P05067 662-675) (peptide) |  |
|  | A4 (ssDNA) DNA: GCAATGGTACGGTACTTCCTGTGTTATTGTTATGTTTTTTCAGTGTAGTCAAAAGTGCACGCTACTTTGCTAA | 15.3 ± 2.03 |
|  | A1 (ssDNA) DNA: GCAATGGTACGGTACTTCCGTCATCAGCTTGTGATGTGGATGCGAACTGCAAAAGTGCACGCTACTTTGCTAA | 68.6 ± 8.12 |

Reference: publication PMC4608735, “Inhibition of BACE1 Activity by a DNA Aptamer in an Alzheimer’s Disease Cell Model”
